Where “and” joins values, the source holds several entries; their conditions need not be identical. Identical values can stand only once.
Target: tail tube protein (TTP) of Bacillus subtilis bacteriophage SPR (Bacillus subtilis bacteriophage SPR)
Assay: cryo-EM structure

“tail tube protein (TTP) of Bacillus subtilis bacteriophage SPR (natural protein)” was tested, and the stoichiometry N was 5 and 6.

Reference: publication doi:10.1101/2024.11.10.622895
